Reference: the supplement of paper PMC12042874
± gives the uncertainty stated by the source.

Test: amyloid nucleation score (Sup35N fusion, yeast selection) (log enrichment); library NNK3; higher = more nucleation; inactive = no reads after selection
How it was run: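 Psi-negative yeast expressed Sup35N fused to peptides of 20 random codons. They were induced 24 hours with 100 μM copper sulfate, grown 7 days at 30°C without adenine and uracil, and their plasmid inserts from input and output were Illumina-sequenced. The nucleation score is the DiMSum log enrichment of output over input reads, centred on the mode score of non-aggregating sequences. Sequences with under 100 input reads were excluded.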

Substance	amyloid nucleation score
RQLFWPTPINNFSVVNGILL	inactive
RQTCFIMVSCYPVKNGNSEI	1.48 ± 0.15
RRARKWLVIDVRVPSLWSMR	inactive
RRFRSLKRPAQNLSDALMSG	inactive
RRNMYLL	-1.31 ± 2.5
RRSCCLVLTIRVFCRICRDE	inactive
RRVFHWYKYCV	inactive
RRWGFCTLVIVCRAGCYVLS	inactive
RRWPTPVCFNEG	inactive
RRYHHFRRECWLVERRIVVF	inactive
RSCVCTTESPLSMTGLRRVV	inactive
RSDMGSHFHAELLKYEMATM	inactive
RSEVAGFHLE	-0.807 ± 1.1
RSEVQHKLVSFLSKLIPRAS	inactive
RSGLVRSRCSRI	inactive
RSLDRRSCAMHILRGHQLKT	inactive
RSLWALSPENRPLGKVS	inactive
RSLYMLVNLMYCGTEVRFIC	inactive
RSNGPLFQVVITYCVSLPLN	inactive
RSNTQGLPQYKC	inactive
RSRLAGFSNYFCMKCVIAAG	inactive
RSSLNDNRYKCNSGSSVYGS	inactive
RSTVLIPWVDNTCTDQSSGW	0.25 ± 0.21
RSTYTSFRARWKRRANGSGW	inactive

Substance	amyloid nucleation score
RSVKSIDSHMAKESF	inactive
RSVVLIPDLFGNL	inactive
RSYIKGIFCLSAMRFQCSMS	-0.404 ± 0.78
RSYKRYSSSYLIIWGWVNMC	inactive
RSYVTILDAFSWIM	-0.239 ± 0.66
RTCSQTIDIGVRNWINEQIM	inactive
RTDLWRIGDVANWIYALP	inactive
RTEKMGRDTKRYCVPHINFG	inactive
RTGTNS	inactive
RTIRFRFIGWWLAIAEDCRG	inactive
RTKMLAVRDVHSGYHSTTQC	inactive
RTNQLREPRANRWEGLAVLK	inactive
RTPLYAVLWVEGGLLPYLL	inactive
RTTKSNYTVLLDQNIPLSPT	inactive
RTWDLDVGVLRLWVLSIG	inactive
RTYYASWENDSMGAVSYCAS	inactive
RVCFLRINDGR	0.06 ± 0.49
RVEAPVMPKRRSIHQCSLKK	inactive
RVFRLCIRFSHA	0.391 ± 0.23
RVFSTFILYGETKFFLVPET	0.677 ± 0.23
RVGCVQYQFRRCRGWKSNKA	inactive
RVGSACNRNSLRKESCTPVQ	inactive
RVIIRNANSILGTPQSDHNQ	0.706 ± 0.18
RVIRNQSVRTPP	inactive

Substance	amyloid nucleation score
RVMCRFIVRSLYAPDSHSLT	1.54 ± 0.073
RVNHGGNLTRAKHERLFHLK	inactive
RVNRRWDSLS	inactive
RVVSSGRGNSHTAATGWLWQ	inactive
RVYGLFTLQYWYLNLYTKGR	0.548 ± 0.36
RVYLRGRIDFKGTTFGGFEK	1.63 ± 0.059
RWDFTSDSISRILTPLNVAK	0.836 ± 0.13
RWDNMFLSWRYCWVYAVSFS	inactive
RWFQRWEIKTNAHLLTTLNM	inactive
RWFRTVGKFFGHIFS	0.039 ± 0.45
RWGLYLR	inactive
RWKFYILVIYGVSASTFAQG	inactive
RWMLSDGFIMKRRTSFFNDM	inactive
RWPKIASCFSTHPWSGRYMW	inactive
RWWVMLLLVRWKRHQDTAYV	inactive
RWYWDHVRIDTYVVHSRTWR	0.979 ± 0.13
RYCNVFVKIVALCGYKGSWS	2.64 ± 0.06
RYCVFSLT	inactive
RYEFS	inactive
RYGSNTSLVANCAGPRPGLV	inactive
RYGVWLTCYVRAKLM	inactive
RYHNFLYGLGNPMG	inactive
RYLGWFLKCTACRDHSEFII	inactive
RYLSMELSQEYLFLVVSLVW	inactive

Substance	amyloid nucleation score
RYLVRCSFWVGKNLV	0.722 ± 0.2
RYPGVFTTQSA	inactive
RYPLSDDPLGIVWITYMLAN	inactive
RYRPHNPDVVN	inactive
RYRTRRALHVYDEFVFEFKP	-0.057 ± 0.68
RYSDHRGIKAVGFAHCFL	inactive
RYSVARIRCTTGNVDVYV	-0.281 ± 1.2
RYVAVCSK	inactive
SAARSNPW	0.311 ± 0.31
SAIPVWGKMRGFYLFYETHC	inactive
SAIRMPAYDYTWRGLYGDKK	inactive
SAKIL	0.118 ± 0.23
SALLNRLSVSLYWMYGMSFM	inactive
SAVRGRCVLYGNRPLIHVRK	inactive
SAYFAVY	inactive
SAYRKTHHSCYNVLYVFMMC	1.49 ± 0.082
SAYYYGKY	inactive
SCARSGTYIAVGIQSCCPRW	1.5 ± 0.14
SCCCDFYTTRKNQRCVHRFR	inactive
SCCYAPRQPLWYASEFGVVG	inactive
SCFAVCHYESRLVYVTYSFL	inactive
SCFVCNF	2.86 ± 0.059
SCGGCLFPDHKCCTSYARWV	inactive
SCGLFRLNMDIRVSNKNFWG	0.991 ± 0.12

Substance	amyloid nucleation score
SCKVTKHGYVKEDFIGLCSY	inactive
SCLCVSW	inactive
SCLTDKRSCFC	0.538 ± 0.34
SCLTIGWLNVVSFWI	1.97 ± 0.082
SCNFGANYNLKMIFIYVPWV	1.75 ± 0.08
SCNVVLRFGAMIYTL	inactive
SCSDW	inactive
SCSGAMTLWFRQPALKHIL	inactive
SCSLRYGMTGWPESKTYTAF	inactive
SCSMHFLVCEDYNRMLALRC	inactive
SCVRHPIECLKWMTLTGEVV	inactive
SCWYETMLFSLCKFKYLGLM	inactive
SDEKNKNVLGAYRVIMCVVY	inactive
SDERCLFGVQRYMHVFLRPI	inactive
SDFPRMNWGFETKCDYSTVR	inactive
SDFSVRVLDNWIHNMTGRIG	inactive
SDGLLLPRSRNVATVEMGDL	inactive
SDISRQYICVMYVSRLRG	inactive
SDLQVIWFMFFCSTLVRDWI	inactive
SDMVVKGERGYICILICRLR	inactive
SDRIDNFAWINFCK	0.831 ± 0.18
